Measured values: patent US20260234667A1

Target: human CXCR3 isoform 1 (human) (UniProt P49682)
Assay: cell-based or functional assay

UniProt P49682, sequence (P49682 whole entry, canonical isoform): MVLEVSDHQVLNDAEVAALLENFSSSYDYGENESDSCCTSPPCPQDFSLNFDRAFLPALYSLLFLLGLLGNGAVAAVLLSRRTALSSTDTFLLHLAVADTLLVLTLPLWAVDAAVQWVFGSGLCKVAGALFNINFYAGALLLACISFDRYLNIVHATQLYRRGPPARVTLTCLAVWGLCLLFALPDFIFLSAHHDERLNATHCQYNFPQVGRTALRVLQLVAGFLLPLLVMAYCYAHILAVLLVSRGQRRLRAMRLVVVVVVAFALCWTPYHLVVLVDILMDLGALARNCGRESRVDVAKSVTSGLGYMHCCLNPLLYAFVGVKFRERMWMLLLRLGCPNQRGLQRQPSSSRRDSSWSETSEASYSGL

B1: ITAC (CXCL11) (ligand, UniProt O14625 22-94, looked up, species assumed)
C-X-C motif chemokine 11: FPMFKRGRCLCIGPGVKAVKVADIEKASIMYPSNNCDKIEVIITLKENKGQRCLNPKSKQARLIIKKVERKNF
- migration of B cells to 100 ng/ml ITAC (CXCL11), fold increase against control cells: 10 fold
- migration of CD4 cells to 100 ng/ml ITAC (CXCL11), fold increase against control cells: > 4 fold
- migration of CD8 cells to 100 ng/ml ITAC (CXCL11), fold increase against control cells: 2.5 fold
